Assay: yeast display, Sf9 membrane polyspecificity reagent, FACS + sequencing; frameworks hold sequencing errors
Summary of the method: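 Nanobodies came from a synthetic yeast display library in Saccharomyces cerevisiae BJ5465, induced with galactose for 36–48 hours and stained for 1 hour at 4 °C with 10% biotinylated, detergent-solubilized Sf9 membrane reagent. Cells were enriched on streptavidin microbeads and then FACS-sorted, with low and high (top ~1%) gates set on anti-HA fluorescence for expression and streptavidin fluorescence for reagent binding. Each polyreactivity label reflects the gate a clone came from. Genes were amplified by colony PCR, sequenced by MiSeq 2 × 250 and filtered by CDR length.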

Row | Sequence | polyreactivity (PSR sort gate)
1 | QVQLVESGGGLVQAGGSLRLSCAASGSIFVWYVMGWSRPAAGKERELVAAITWSAARTYYADSVKGRFTISRDNAKNTVYLQMNSLKPEDTAVYYCAADHVSYQPSSRIFDYWGQGTQVTVSS | low polyreactivity
2 | QVQLVESGGGLVQAGGSLRLSCAASGIIFAYNAMGWYRQAPGKERELVAAISVIGGTTYYADSVKGRFTISRDNAKNTVYLQMHSLKPEDTAVYYCAVDSVQYGGGYERLHELYYWGQGTQVTVSS | low polyreactivity
3 | QVQHVESGGGLVQAGGSLRLSCAASGYTFGGNAMGWYRQAPGKERELVAAISSGGSTNYADSVKGRFTISRDNAKNTVYLQMNSLKPEDTAVYYCNKRGYYYWSGQDVASYDYWGQGTQLTVSS | low polyreactivity
4 | QVQLVESGGGLVQAGCSLRLICAASGSIFDEYAMGWYRKAPGKERELVAAITSNGGSTYADSVKGRFTISRDNAKNTVYLQMNSLKPEDTAVYYCAADYFVYWYYGYGYWGQGTQVTVSS | low polyreactivity
5 | QVQPVESGGGLVHAGGSLRLSCAASGSIFWYNAMGWYRQAPGQEWELVAAINWSGGSTFYADSVKGRFTISRDNEKNTVYLQMNSLNPEDTAVYYCAADDWSTGYDFWGQGTQETVSS | high polyreactivity
6 | QVQLVESGGGLVQAGGSLRLSCAASGIILGYYAMGWYRQAPGKERELVAAINWSGASTYYADSVKGRFTISRDNAKNTVYLQMNSLKPEDTAVYYCARRAYGTRVLFDYWGQGTQVTVSS | high polyreactivity
7 | QVQLVESGGGLVQAGGSLRLICAASGRIFKWYVMGWYRQAPGKERELVAAISRSGDSTNYADSVKGRFTISRDNAKNTVYLQMNSLKPEDTAVYYCAVGYRYLKWVDYWGQGTQVTVSS | high polyreactivity
8 | QVQLVESGGGLVQAGGSLRLSCAASGSTFYSNAMGWYRQAPGKERELVASIRFSGVITTYADSVKGRFTISRDNAKNTVYLQMNSLKPEDTAVYYWAAGYLSTTAYDYWGQGTQVTVSS | low polyreactivity
9 | QVQLVESGVGLVQAGGSLRLICAASGRTFAYYAMGWYRQAPGKERELVAAISSGGRTNYADSVKGRFTISRDNAKNTVYLQMNSLKPEDTAVYYCARKASYQIYNGQYGGFGYGYWGQGTQVTVSS | high polyreactivity
10 | QVQLVESGGGLVQAGGSLRLSCAASGRIFLYNAMGWYRQAPGKERELVAAITSSGSSTYYADSVKGRFTISRDNAKNTVYLQMNSLKPEDTAVYYCNRYTRKTRRVDYWGQGTQVTVSS | high polyreactivity
11 | QVQLVESGGGLVQAGGSLRLSCAASGFTFTKYDMGWYRQAPGKERELVAVITWSGGSTYYADSVKGRFTISRDNAKNTVYLQMNSLKPEDTAVYYCNDEAPRYTYGRMDYWGQGTQVTVSS | low polyreactivity
12 | QVQLVESGGGLVQAGGSLRLSCAASGFIFRRYAMGWYRQAPGKERELVAAITRSGGSTYYADSVKGRFTISRDNAKNTVYLQMNSLKPEDTAVYYCAAPYFGANGKPEYGYWGQGTQVTVSS | high polyreactivity
13 | HVQLVESGGGLVQPGGSLRLSCAASGLTFPSYAMGWYRQAPGKERELVAAISSGDSTNYADSVKGRFTISRDNAKNTVYLQMNSLKPEDTAVYYCAVGLPHGGRSLYGSWYRFDYWGQGTQVTVSS | low polyreactivity
14 | QVQLVESVGGLVQAGGSLRLSCAASGSNFKYYAMGWYRQAPGKERELVAAITIGGNTNYADSVKGRFTISRDNAKNTVYLQMNSLKPEDTAVYYCATGGYYSAIVYGGYDYWGQGTQVTVSS | low polyreactivity
15 | QDQLVDSGGGLVQAGGSLRLSCAASGRIIGYNAMVWYRQGPGKERELVAAITTSGGSTYYADSVKGRFTISSDNAKNTVYLQMNSLKPVDTAVYYCARDSLQVFYPYASDDYWGQGTQVTVSS | low polyreactivity
16 | QVQLVESGGGLVQAGGSLRLSCAASGRTFYNAMGWYIQAPGKERELVAAITTGGGTKYADSVKGRFTISRDNAKNTVYLQMHSLQPEDTAVYYCNTDAWYHFYHGAHKFDYWGQGTQVTVSS | low polyreactivity
17 | QVQLVESGGGLFQAGGSLSLSCAASGSTFVKYAMGWYRQAPGKERELVATITRRGGNTYYADSVKGRFKISRVNAKNTVYIQLNSLKPEDTEVYYCNRADYRASYSGQGSYDYWGQGTQVTVSS | high polyreactivity
18 | QVQLVESGGGLVQAGGSLRLSCAASGRIFTTYAMGWYRQAPGKERELVARITLSAGRTYYADSVKGRFTISRDNAKYSVYLQMNSLKPEDTEVYYCAAEGFYRSSPVRTYIGYDYWGQGTQVTVSS | high polyreactivity
19 | QVQLVESGGVLLQAGGSLRLTCAASGSIFQYNALVGYRQAPGKVREFVAAITRGDSTYYADSVKGRFTISRDNAKNTVYLQMNSLKADDTAVYYCAKRGWFYGGRDYWGQGTQVTVSS | high polyreactivity
20 | QVHLVESGGGLVQAAGSLRLSCAASGITFAPYAMGWYRQAPGKERELVAGINTGGSTYYADSVKGRFTISRDKEKNTVYLQMNSLKPEDTAFYYCATDSYPADQDIPGCDYWGQGTQVTVSS | low polyreactivity
21 | QVQLVESGGGLVQAGGSLRLSCAASGSTFKRNAMGWYRQAPGKERELVATITRRGGSTYADSVKGRFTISRDNAKNTVYLQMNSLKPEDTAVYYCARDGFSAGMDYWGQGTQVTVSS | low polyreactivity
22 | QVQLVESGGGLVQAGGSLRLSCAASGSIFVNYAMGWFRQAPGKERELVAAITRSGGRTYYADSVKGRFTISRDNAKNTVYLQMNSLKPEDTAVYYCAARLGYAGNRDGSWGQGTQVTVSS | high polyreactivity

Row | Sequence | polyreactivity (PSR sort gate)
23 | QVQLVESGGGLVQAGGSLRLSCSASGIIFGGNAMGWYRQAPGKERELVAGISSRGGSTYYADSVKGRFTISRDNAKNTVYLQMNSLKPEDTAVYYCAAVSSRRPGYEYYYWGQGTQVTVSS | high polyreactivity
24 | QVHLVESGGGLVQAGGSLRLSCAASGSIFDEYAMGWYRQAPGKERELVAAITSGGSTNYADSVKGRFTISRDNAKNTVYLQMNSLKPEDTAVYYCNVARQAKGMGYWGQGTEVTVSS | low polyreactivity
25 | QVQLVESGGGLVQAGGSLRLSCAASGRTFYLYAMGWYRQAPGTERELVADITSGGSTYYADSVKGRFTISRDNAKNTVYLQMNSLKPEDTAVYYCAADWVTFYSYTEYDYWGQGTQVTVSS | low polyreactivity
26 | QVQLVESGGGLVQAGGSLRLSCAASGFTFRGYAMGWYRQAPGKERELVAAISWRGGSTYYADSVKGRFTISRDNAKNTVYLQMNSLKPEDTAVYYCAARYGRSYFGYYYWGQGTQVTVSS | high polyreactivity
27 | QVQLVESGGGLVQAGGSLRLSCAASGSIFYLYTMGWYRQAPGKERELVAAITSGGSTNYADSVKGRFTISRDNAKNTVYLQMNSLKPEDTAVYYCAAEYFDWWVTYDYWGQGTQVTVSS | high polyreactivity
28 | QVQLVESGRGLFQAGGRLRLSCAASGRIFSFYAMGWSRQAPGKERELVASITSGGITNYADSVKGRFTISRDNAKNTVYLQMNSLKPEDTAVYYCNAANPYRRVGSFTYKYDYWGQGTQVTVSS | low polyreactivity
29 | QVQLVESGGGLVQAGGSLRLSCDASGFTFTRNAMGWYRQAPGKERELVDAISKRGGTTYYADSVKGRFTISRDYAKNTVYLQMNTLKPEDTSVYYCAKDGGITGGYWGQGTQVTVSS | high polyreactivity
30 | QVQLVESGGGLVQAGGSLRLSCAASGIIFDYNAMGWYRQAPGKERELVAAITSTDNTNYADSVKGRFTISRDNAKNTVYLQMNSLKPEDTAVYYCNSVYWLSVVYAMDYWGQGTQVTVSS | low polyreactivity
31 | QVQLVESGGGIVQAGVSLRLSCAASGRTFWTNAMGWYRQAPGKERELVAVISTTTGNTYYADSVKGRFTISRDNAKNTVYLQMNSLKPEDTAVYYCNTRTGAFFLSKPYYYWGQGTQVTVSS | low polyreactivity
32 | QVQLVESGGGLVQAGGSLRLSCAASGSTFNVNAMGWYRQSPGKERELVAAITSSGGSTNYADSVKGRFTFSRDNAKYTVYLQMNSLNPEDTAFYYCAAYAIYFSRLNLGYDYWGQGTQVTVSS | low polyreactivity
33 | QVQLVESGGGLVQAGGSLRLICAASGRNFSGNAMGWYTQAPRKERELVAAISTGGSTNYADSVKGRFTISRDNAKNTVYLHMNSLKQEDTAVYYCAADEWRFPSYAYYYWGQGTQVNVSS | low polyreactivity
34 | QVQLVESGGGLVQAGGSLRLSCAASGRTLSRYTMGWYRQAPGKERELVAAISTSGSTYYADSVKGRFTISRDNAKNTVYLQMNSLKPEDTAVYYCYAVRRYLQYATGYDYWGQGTQVTVSS | high polyreactivity
35 | QVQLVESGGGLVQAGGSLRLSCAASGFTFDEYAMGWYRQAPGKEREFVATISSSGGSTYYADSVKGRFTISRDNAKNTVYLQMNSLKPEDTAVYYCAADVRRLYTSGVDYWWHSEYDYWGQGTQVTLSS | low polyreactivity
36 | HVQLVESGGGLVQEGGRLRLSCAASGFIFQVNAMGWYRQAPGKERELVAAITGSDGSTSYADSVKGRFTISRDNAKNNVYLQMNSLKPEDTAVYYCAKEESVSTHYYHLIRFDQWGQGTQVTVSS | low polyreactivity
37 | QVQLVESGGVLVQAGGSLRLSCAASGLTFQPYVMGWYRHAPGKERELVAAISVRTTRTYYADSVKGRFTISRDNAKNTVYLQMNSLKPEDTAVYYCATRGDYWSPYEDDDYWGQGTQLTVSS | low polyreactivity
38 | QVQLVESGGGLVQAGGSLRLSCAASGSILGSYAMGWYRQAPGKERELVAAISWNGARTYYADSVKGRFTISRDNAKNTVYLQMNSLKPEDTAVYYCARVRVGRTTFDYWGQGTQVTVSS | low polyreactivity
39 | QVQLVESGGGLVQAGGSLRLSCAASGSNFEYYTMGWYRQAPGKEREFVAAITFTGDSTYYADSVKGRFTSSRDNAKNTVYLQMNSLTPEDTAVYYCNDDSDTYDGEYDYWGQGTQVTVSS | low polyreactivity
40 | QVQLVESGGGLVQAGGSLRLSCAASGSIFAYYTMGWYRQAAGNERELVAVINASGGGTYYADSVKGRFTISRDNAKNTVYLQMNSLKPEDTAVYYCAATYSPFDFYYWGQGTQVTVSS | low polyreactivity
41 | QVQLVESGGGLVQAGGSLRLSCAASGRIFYPYAMGWYRQAPGIERELVAAIDKGGGSTYYADSVKGRFSISRDNAKNTVYVQMNSLKPEDTAVYYCAAGWEYPYDYWGQGTQVTVSS | low polyreactivity
42 | QVQLVESGGRLVQAGGSLRLSCAASGRIFNHYAMGWYRQAPGKERELVAAIDRSGGSTYYADSVKGRFTISRDNAKNTVYFQMNSLKPEDTAVYYCNARRIIAKYGYWGQGTQVTVSS | high polyreactivity
43 | QVQLVESGGGLVQAGGSLRLSCAASGLTFSGYAMGWYRQAPGKERELVAAISWRGGSTYYADSVKGRFTISRDNAKNTVYLQMNSLKPEDTAVYYCNRARVQDYPYYYWGQGTQVTVSS | high polyreactivity
